Target: GST protein (negative control, from pGEX2TK) (UniProt P08515 1-218 = GST)
Assay: solid phase overlay assay, 32P-labeled GST-PPP2R2C probe on blotted protein
Description: After 4.5 hr of incubation, the membrane was washed with Hyb75 buffer, 1 mM DTT, 1% (w/v) non-fat dry milk three times for 15 min at room temperature. The blots were analyzed by autoradiography.

GST protein (negative control, from pGEX2TK), sequence (P08515 whole entry): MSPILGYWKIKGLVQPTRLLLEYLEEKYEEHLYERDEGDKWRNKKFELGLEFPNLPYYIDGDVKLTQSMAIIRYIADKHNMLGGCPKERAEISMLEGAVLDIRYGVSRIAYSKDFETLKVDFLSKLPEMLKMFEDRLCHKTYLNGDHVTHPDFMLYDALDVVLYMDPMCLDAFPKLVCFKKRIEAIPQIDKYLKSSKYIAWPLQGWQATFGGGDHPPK

B1: GST-PPP2R2C radiolabeled recombinant protein (other)
chain: GEDTDTRKINHSFLRDHSYVTEADIISTVEFNHTGELLATGDKGGRVVIFQREPESKNAPHSQGDYDVYSTFQSHEPEFDYLKSLEIEEKINKIKWLPQQNAAHSLLSTNDKTIKLWKITERDKRPEGYNLKDEEGKLKDLSTVTSLQVPVLKPMDLMVEVSPRRIFANGHTYHINSISVNSDCETYMSADDLRINLWHLAITDRSFNIVDIKPANMEDLTEVITASEFHPHHCNLFVYSSSKGSLRLCDMPAAALCDKHSKLFEEPEDPSNRSFFSEIISSVSDVKFSHSDRYMLTRDYLTVKVWDLNMEARPIETYQVHDYLRSKLCSLYENDCIFDKFECAWNGSDSVIMTGAYNNFFRMFDRNTKRDVTLEASRESSKPRAVLKPRRVCVGGKRRRDDISVDSLDFTKKILHTAWHPAENIIAIAATNNLYIFQDKVNSDMH
modifications: 32P-phosphorylated in vitro with PKA and [32P]-γATP (site not stated)
notes: Insert is nucleotides 55-1540 of AF086924 (the bait construct starts at 52), so the first codon may be missing; also called PP2A/Bγ; protein encoded by pGEX-2TK-PPP2R2C; not shown: glutathione S-transferase encoded by the pGEX-2TK vector (Amersham Pharmacia Biotech)
**Q.** Does B1 bind?
**A.** Result: no binding (tested: 100 ng, 10 ng and 0.1 ng of GST loaded)

— patent US20040203128A1 (GENSET S A, published 2004)
